Experiments:
[1] = system: HeLa Kyoto; assay: solubility in G1/S (NP-40 vs SDS abundance) (log2 ratio); higher = more soluble; conditions: cell cycle stage: G1/S
[2] = system: HeLa Kyoto; assay: solubility change mitosis vs G1/S (difference of NP-40 vs SDS log2 ratios) (log2 ratio difference); higher = more soluble in mitosis
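Throughout, for solubility change mitosis vs G1/S (difference of NP-40 vs SDS log2 ratios): synchronized HeLa Kyoto cells (double thymidine block for G1/S, nocodazole release for mitosis), protein amounts in NP-40 versus SDS lysates quantified by mass spectrometry, three biological replicates.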
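Throughout, for solubility in G1/S (NP-40 vs SDS abundance): HeLa Kyoto cells arrested at G1/S by double thymidine block, proteins quantified by TMT10plex mass spectrometry in mild NP-40 versus SDS extracts, three biological replicates.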

Substance | solubility in G1/S (log2) [1] | solubility change mitosis (log2) [2]
MFFYLSKKISIPNNVKLQCVSWNKEQGFIACGGEDGLLKVLKLETQTDDAKLRGLAAPSNLSMNQTLEGHSGSVQVVTWNEQYQKLTTSDENGLIIVWMLYKGSWIEEMINNRNKSVVRSMSWNADGQKICIVYEDGAVIVGSVDGNRIWGKDLKGIQLSHVTWSADSKVLLFGMANGEIHIYDNQGNFMIKMKLSCLVNVTGAISIAGIHWYHGTEGYVEPDCPCLAVCFDNGRCQIMRHENDQNPVLIDTGMYVVGIQWNHMGSVLAVAGFQKAAMQDKDVNIVQFYTPFGEHLGTLKVPGKEISALSWEGGGLKIALAVDSFIYFANIRPNYKWGYCSNTVVYAYTRPDRPEYCVVFWDTKNNEKYVKYVKGLISITTCGDFCILATKADENHPQEENEMETFGATFVLVLCNSIGTPLDPKYIDIVPLFVAMTKTHVIAASKEAFYTWQYRVAKKLTALEINQITRSRKEGRERIYHVDDTPSGSMDGVLDYSKTIQGTRDPICAITASDKILIVGRESGTIQRYSLPNVGLIQKYSLNCRAYQLSLNCNSSRLAIIDISGVLTFFDLDARVTDSTGQQVVGELLKLERRDVWDMKWAKDNPDLFAMMEKTRMYVFRNLDPEEPIQTSGYICNFEDLEIKSVLLDEILKDPEHPNKDYLINFEIRSLRDSRALIEKVGIKDASQFIEDNPHPRLWRLLAEAALQKLDLYTAEQAFVRCKDYQGIKFVKRLGKLLSESMKQAEVVGYFGRFEEAERTYLEMDRRDLAIGLRLKLGDWFRVLQLLKTGSGDADDSLLEQANNAIGDYFADRQKWLNAVQYYVQGRNQERLAECYYMLEDYEGLENLAISLPENHKLLPEIAQMFVRVGMCEQAVTAFLKCSQPKAAVDTCVHLNQWNKAVELAKNHSMKEIGSLLARYASHLLEKNKTLDAIELYRKANYFFDAAKLMFKIADEEAKKGSKPLRVKKLYVLSALLIEQYHEQMKNAQRGKVKGKSSEATSALAGLLEEEVLSTTDRFTDNAWRGAEAYHFFILAQRQLYEGCVDTALKTALHLKDYEDIIPPVEIYSLLALCACASRAFGTCSKAFIKLKSLETLSSEQKQQYEDLALEIFTKHTSKDNRKPELDSLMEGGEGKLPTCVATGSPITEYQFWMCSVCKHGVLAQEISHYSFCPLCHSPVG [WDR35] | -0.261 | -0.105
DNAJB5 | 0.153 | 0.00156
MASSGAGDPLDSKRGEAPFAQRIDPTREKLTPEQLHSMRQAELAQWQKVLPRRRTRNIVTGLGIGALVLAIYGYTFYSISQERFLDELEDEAKAARARALARASGS [COA3] | -0.65 | 0.902
MMMVRRGLLAWISRVVVLLVLLCCAISVLYMLACTPKGDEEQLALPRANSPTGKEGYQAVLQEWEEQHRNYVSSLKRQIAQLKEELQERSEQLRNGQYQASDAAGLGLDRSPPEKTQADLLAFLHSQVDKAEVNAGVKLATEYAAVPFDSFTLQKVYQLETGLTRHPEEKPVRKDKRDELVEAIESALETLNSPAENSPNHRPYTASDFIEGIYRTERDKGTLYELTFKGDHKHEFKRLILFRPFGPIMKVKNEKLNMANTLINVIVPLAKRVDKFRQFMQNFREMCIEQDGRVHLTVVYFGKEEINEVKGILENTSKAANFRNFTFIQLNGEFSRGKGLDVGARFWKGSNVLLFFCDVDIYFTSEFLNTCRLNTQPGKKVFYPVLFSQYNPGIIYGHHDAVPPLEQQLVIKKETGFWRDFGFGMTCQYRSDFINIGGFDLDIKGWGGEDVHLYRKYLHSNLIVVRTPVRGLFHLWHEKRCMDELTPEQYKMCMQSKAMNEASHGQLGMLVFRHEIEAHLRKQKQKTSSKKT [CSGALNACT1] | 0.0522 | 0.00125
MACSLQKLFAVEEEFEDEDFLSAVEDAENRFTGSLPVNAGRLRPVSSRPQETVQAQSSRLLLLHPTAPSEALGLPDLDLCLPASSTPSADSRPSCIGAAPLRPVSTSSSWIGNQRRVTVTEVLRETARPQSSALHPLLTFESQQQQVGGFEGPEQDEFDKVLASMELEEPGMELECGVSSEAIPILPAQQREGSVLAKKARVVDLSGSCQKGPVPAIHKAGIMSAQDESLDPVIQCRTPRPPLRPGAVGHLPVPTALTVPTQQLHWEVCPQRSPVQALQPLQAARGTIQSSPQNRFPCQPFQSPSSWLSGKAHLPRPRTPNSSCSTPSRTSSGLFPRIPLQPQAPVSSIGSPVGTPKGPQGALQTPIVTNHLVQLVTAASRTPQQPTHPSTRAKTRRFPGPAGILPHQQSGRSLEDIMVSAPQTPTHGALAKFQTEIVASSQASVEEDFGRGPWLTMKSTLGLDERDPSCFLCTYSIVMVLRKQAALKQLPRNKVPNMAVMIKSLTRSTMDASVVFKDPTGEMQGTVHRLLLETCQNELKPGSVLLLKQIGVFSPSLRNHYLNVTPNNLVHIYSPDSGDGSFLKPSQPFPKDSGSFQHDVAAKPEEGFRTAQNLEAEASPEEELPEADDLDGLLSELPEDFFCGTSS [C17ORF53] | 0.384 | 0.0975

Reference: the supplement of paper PMC5998384
